Reference: paper PMC11551737, “Structural and functional insights into the interaction between the bacteriophage T4 DNA processing proteins gp32 and Dda” (Nucleic Acids Research, 2024)
Where a chain is given by its changes, count along the chain named. Names may count otherwise.

Assays:
wild-type Dda/dT20 = molecular target: T1, wild-type Dda/dT20 (Enterobacteria phage T4, UniProt P32270); type: binding, bacteriophage T4; details: SPR, Biacore T200, 25°C; wild-type Dda/dT20 on NTA chip; average of three experiments
T1 construct: His-tag; made in house
T1 sequence (P32270 whole entry): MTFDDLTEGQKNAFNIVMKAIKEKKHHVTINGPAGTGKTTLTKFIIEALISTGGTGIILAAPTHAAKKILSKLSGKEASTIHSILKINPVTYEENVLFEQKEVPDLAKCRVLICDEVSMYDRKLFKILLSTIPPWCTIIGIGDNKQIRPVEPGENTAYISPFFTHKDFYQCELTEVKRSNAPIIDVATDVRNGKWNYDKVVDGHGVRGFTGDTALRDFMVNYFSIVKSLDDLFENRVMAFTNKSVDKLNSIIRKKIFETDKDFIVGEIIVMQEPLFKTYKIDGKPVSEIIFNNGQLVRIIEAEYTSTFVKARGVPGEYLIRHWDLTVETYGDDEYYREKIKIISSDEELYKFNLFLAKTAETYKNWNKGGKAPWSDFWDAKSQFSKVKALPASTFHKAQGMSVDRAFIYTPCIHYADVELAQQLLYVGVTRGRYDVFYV

[1] = molecular target: bacteriophage T4 gp32 single-stranded DNA-binding protein, full length, His-tagged (bacteriophage T4) (UniProt P03695); assay: AUC; sedimentation velocity, 20°C, 42 000 rpm; 20 mM Tris pH 7.0, 200 mM NaCl, 0.5 mM EDTA, 5 mM β-mercaptoethanol; gp32 at 11.10 μM
[2] = molecular target: T2, bacteriophage T4 helicase Dda, ATPase deficient mutant K38A (bacteriophage T4, UniProt P32270 1-439, K38A); assay: SPR; SPR analysis 1: Biacore 3000, 25°C; His-tagged Dda-K38A/dT20 immobilised on an NTA chip by capture-coupling (~5800 RU); peptides injected, 4-fold dilution series, maximum 100 μM; 20 mM Tris-acetate pH 8.0, 150 mM NaCl, 10 mM magnesium acetate, 3 mM potassium glutamate, 1 mM TCEP, 0.05% Tween20, 10% glycerol; steady-state fit, 1:1 model; details: both partners purified
T2 construct: Dda, SF1B helicase of bacteriophage T4, active site point mutant K38A; called His-tagged in SPR analysis 1; theoretical mass printed as 52 046 Da; also called Dda-K38A; Dda–K38A
T2 sequence: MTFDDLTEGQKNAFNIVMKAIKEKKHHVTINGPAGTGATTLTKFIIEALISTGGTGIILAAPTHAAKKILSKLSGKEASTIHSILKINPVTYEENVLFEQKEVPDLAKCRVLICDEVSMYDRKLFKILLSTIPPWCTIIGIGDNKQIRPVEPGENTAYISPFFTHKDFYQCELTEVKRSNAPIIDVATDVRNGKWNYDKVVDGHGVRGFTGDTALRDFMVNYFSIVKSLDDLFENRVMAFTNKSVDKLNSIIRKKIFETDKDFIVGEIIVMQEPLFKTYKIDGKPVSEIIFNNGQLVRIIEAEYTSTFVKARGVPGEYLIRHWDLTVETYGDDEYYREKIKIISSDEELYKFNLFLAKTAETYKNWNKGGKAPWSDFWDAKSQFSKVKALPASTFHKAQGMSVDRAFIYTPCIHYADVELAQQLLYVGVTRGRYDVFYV

[3] = molecular target: T3, bacteriophage T4 helicase Dda, wild type (bacteriophage T4) (UniProt P32270)
T3 sequence: T2 sequence with A38K

wild-type Dda = assay: Dda-dependent DNA unwinding assay with gp32 variants (fluorescein-quenched replication fork substrate, no annealing trap); type: biochemical, bacteriophage T4; details: 375 nM gp32 variant, 25 nM wild-type Dda, 25 nM substrate, 2.5 mM ATP, triplicate experiments; for Rate constant of product formation (single exponential fit): 5 mM Mg(OAc)2, pH 7.5, room temperature, fluorescein fluorescence; for Amplitude of the product formation curve (fluorescence): higher amplitude = more effective prevention of reannealing
Method: A partial duplex substrate mimicking a replication fork was prepared by mixing equimolar concentrations of the following oligonucleotides: loading strand - […]/36-FAM/, displaced strand - […], and leading strand - […] in 10 mM HEPES/1 mM EDTA. The sample was heated to 95°C for 5 min, followed by slowly cooling to room temperature. All concentrations are final, after mixing. ATP (2.5 mM), Mg(OAc)2 (5 mM) and gp32 (375 nM) in assay buffer (25 mM HEPES, pH 7.5, 10 mM KOAc, 0.1 mM EDTA, 2 mM β-mercaptoethanol, 1 mg/ml bovine serum albumin and 4 mM phosphoenol pyruvate) were mixed and added to wells in one row of a black 96-well plate. The reactions were initiated by adding 25 nM substrate, 25 nM wild-type Dda and 5 U/ml pyruvate kinase/lactate dehydrogenase in assay buffer with a multichannel pipette to the entire row simultaneously. Fluorescein fluorescence was measured 8 times per minute in a VICTOR Nivo Multimode Plate Reader (Perkin Elmer) at room temperature with excitation through a 480/30 nm bandpass filter and emission measured after a 530/30 nm bandpass filter.

[4] = molecular target: T4, bacteriophage T4 helicase Dda, wild type (bacteriophage T4, UniProt P32270 1-439); assay: SPR; wild-type Dda bound to dT20
T4 chain: T2 sequence with A38K

[5] = molecular target: T5, bacteriophage T4 helicase Dda, wild type (bacteriophage T4, UniProt P32270 1-439); assay: SPR; SPR analysis 2: Biacore T200, 25°C; wild-type Dda/dT20 immobilised on an NTA chip as in SPR analysis 1; peptides injected, 2-fold dilution series, 100 μM to 0.78 μM; steady-state analysis; details: both partners purified
T5 construct: Dda, SF1B helicase of bacteriophage T4, wild type; also called wild-type Dda
T5 sequence (looked up): T2 sequence with A38K

For AATAAKKEDKVADDADAFNVDDF [A255E/L262A], the Rmax (wild-type Dda/dT20) was 196 (+/- 12.6) RU.

AATAAKKADKEADDLDAANVDDF [V258E/F265A] was tested, and the Rmax (wild-type Dda/dT20) was 115 (+/- 5.88) RU.

In the case of “bacteriophage T4 gp32 single-stranded DNA-binding protein, full length, His-tagged (from UniProt P03695 1-301) (natural protein)”, the stoichiometry N [1] is reported as 2.

AATAAKKADKVADDLDAFNVDDFNT (peptide, UniProt P03695 248-272, looked up, source: synthetic peptide) [gp32 C-terminal peptide 248–272]: binds [2].

B1: gp32-A (1–254), gp32 that lacks the C-terminal region (domain or fragment)
chain: MFKRKSTAELAAQMAKLNGNKGFSSEDKGEWKLKLDNAGNGQAVIRFLPSKNDEQAPFAILVNHGFKKNGKWYIETCSSTHGDYDSCPVCQYISKNDLYNTDNKEYSLVKRKTSYWANILVVKDPAAPENEGKVFKYRFGKKIWDKINAMIAVDVEMGETPVDVTCPWEGANFVLKVKQVSGFSNYDESKFLNQSAIPNIDDESFQKELFEQMVDLSEMTSKDKFKSFEELNTKFGQVMGTAVMGGAAATAAKK
Work on B1 yielded an amplitude of the product formation curve (fluorescein fluorescence) in the Dda-dependent DNA unwinding assay without annealing trap; 375 nM gp32, 25 nM wild-type Dda, 25 nM substrate [3] of 86000.

B2: gp32-A: gp32 lacking the C-terminal region (residues 1–254) (protein)
chain: B1 chain
modifications: left off: 6xHis, N-terminal, state not stated
With B2 the “Rate constant of product formation (single exponential fit)” value (from here on “Rate constant of product formation”) (wild-type Dda) was 0.021 s⁻¹ and the “Amplitude of the product formation curve (fluorescence)” value (shortened to “Amplitude … (fluorescence)”) (wild-type Dda) was 86 000.

AATAAKKADKVADDLDAFNVDDFNTKTEDDFMS (peptide, UniProt P03695 248-280, looked up, source: synthetic peptide) [gp32 C-terminal peptide 248–280]: binds [2].

B3: full-length gp32 variant A255E/L262A (natural protein)
chain: MFKRKSTAELAAQMAKLNGNKGFSSEDKGEWKLKLDNAGNGQAVIRFLPSKNDEQAPFAILVNHGFKKNGKWYIETCSSTHGDYDSCPVCQYISKNDLYNTDNKEYSLVKRKTSYWANILVVKDPAAPENEGKVFKYRFGKKIWDKINAMIAVDVEMGETPVDVTCPWEGANFVLKVKQVSGFSNYDESKFLNQSAIPNIDDESFQKELFEQMVDLSEMTSKDKFKSFEELNTKFGQVMGTAVMGGAAATAAKKEDKVADDADAFNVDDFNTKTEDDFMSSSSGSSSSADDTDLDDLLNDL
In the case of B3, the amplitude of the product formation curve (fluorescein fluorescence) in the Dda-dependent DNA unwinding assay without annealing trap; 375 nM gp32, 25 nM wild-type Dda, 25 nM substrate [3] is reported as 130000.

B4: full-length gp32 variant V258E/F265A (natural protein)
chain: B3 chain with E255A, V258E, A262L, F265A
Molecule B4 has an amplitude of the product formation curve (fluorescein fluorescence) in the Dda-dependent DNA unwinding assay without annealing trap; 375 nM gp32, 25 nM wild-type Dda, 25 nM substrate [3] of 87000.

B5: gp32 V258E/F265A: full-length gp32 variant V258E/F265A designed to reduce gp32–Dda interactions (protein)
chain: B3 chain with E255A, V258E, A262L, F265A
modifications: left off: 6xHis, N-terminal, state not stated
With B5 the “Rate constant of product formation” value (wild-type Dda) was 0.026 s⁻¹ and the “Amplitude … (fluorescence)” value (wild-type Dda) was 87 000.

B6: gp32 A255E/L262A: full-length gp32 variant A255E/L262A designed to reduce gp32–Dda interactions (protein)
chain: B3 chain
modifications: left off: 6xHis, N-terminal, state not stated
For B6, the “Rate constant of product formation” value (wild-type Dda) was 0.023 s⁻¹ and the “Amplitude … (fluorescence)” value (wild-type Dda) was 130 000.

NTKTEDDFMSSSSGSSSSADDTDLDDLLNDL [gp32 C-terminal peptide 271–301] gave a Kd [4] of 178 µM.

B7: gp32-B (21–301), gp32 that lacks the N-terminal region (domain or fragment)
chain: KGFSSEDKGEWKLKLDNAGNGQAVIRFLPSKNDEQAPFAILVNHGFKKNGKWYIETCSSTHGDYDSCPVCQYISKNDLYNTDNKEYSLVKRKTSYWANILVVKDPAAPENEGKVFKYRFGKKIWDKINAMIAVDVEMGETPVDVTCPWEGANFVLKVKQVSGFSNYDESKFLNQSAIPNIDDESFQKELFEQMVDLSEMTSKDKFKSFEELNTKFGQVMGTAVMGGAAATAAKKADKVADDLDAFNVDDFNTKTEDDFMSSSSGSSSSADDTDLDDLLNDL
B7 was tested, and the amplitude of the product formation curve (fluorescein fluorescence) in the Dda-dependent DNA unwinding assay without annealing trap; 375 nM gp32, 25 nM wild-type Dda, 25 nM substrate [3] was 200000.

B8: gp32-B: gp32 lacking the N-terminal region (residues 21–301) (protein)
chain: B7 chain
modifications: left off: 6xHis, N-terminal, state not stated
For B8, the “Rate constant of product formation” value (wild-type Dda) was 0.013 s⁻¹ and the “Amplitude … (fluorescence)” value (wild-type Dda) was 200 000.

B9: gp32 C-terminus peptide encompassing residues 248–270 (peptide)
peptide: AATAAKKADKVADDLDAFNVDDF
notes: also called gp32 C-terminal peptide; source: synthetic peptide
B9: binds [5].

B10: A255E/L262A mutant of gp32 peptide 248–270 (peptide, UniProt P03695 248-270, looked up)
peptide: AATAAKKEDKVADDADAFNVDDF
notes: probably a synthetic peptide like those of SPR analysis 1; also called mutant peptide A255E/L262A
For B10, the Kd [4] was 504 µM and the “fold less binding than the wild-type peptide 248–270” value [5] was ~10 fold.

B11: V258E/F265A mutant of gp32 peptide 248–270 (peptide, UniProt P03695 248-270, looked up)
peptide: AATAAKKADKEADDLDAANVDDF
notes: probably a synthetic peptide like those of SPR analysis 1; also called mutant peptide V258E/F265A
In the case of B11, the Kd [4] is reported as 492 µM and the “fold less binding than the wild-type peptide 248–270” value [5] is reported as ~10 fold.
